Measurements as given in patent US20240117018A1.

How the values were obtained:
Test in all cases: cell-based or functional assay
[1] = target: HIV-1 Env pseudovirus 6545.v4.c1 (HIV-1)
[2] = target: HIV-1 Env pseudovirus 3301.v1.c24 (HIV-1)
[3] = target: HIV-1 Env pseudovirus 6811.v7.c18 (HIV-1)
[4] = target: HIV-1 Env pseudovirus 231965.c01 (HIV-1)
[5] = target: HIV-1 Env pseudovirus T278-50 (HIV-1)
[6] = target: HIV-1 Env pseudovirus 211-9 (HIV-1)
[7] = target: HIV-1 Env pseudovirus 3016.v5.c45 (HIV-1)
[8] = target: HIV-1 Env pseudovirus C3347.c11 (HIV-1)
[9] = target: HIV-1 Env pseudovirus X1632_S2_B10 (HIV-1)
[10] = target: Env of HIV-1 pseudovirus HIV-0013095-2.11 (HIV-1)
[11] = target: Env of HIV-1 pseudovirus 6244_13_B5_4576 (HIV-1)
[12] = target: Env of HIV-1 pseudovirus Ce0682_E4 (HIV-1)
[13] = target: Env of HIV-1 pseudovirus CAAN5342.A2 (HIV-1)
[14] = target: Env of HIV-1 pseudovirus Ce1172_H1 (HIV-1)
[15] = target: Env of HIV-1 pseudovirus Du422.1 (HIV-1)
[16] = target: Env of HIV-1 pseudovirus PVO.4 (HIV-1)
[17] = target: Env of HIV-1 pseudovirus 191955_A11 (HIV-1)
[18] = target: Env of HIV-1 pseudovirus Ce0393_C3 (HIV-1)
[19] = target: Env of HIV-1 pseudovirus RHPA4259.7 (HIV-1)
[20] = target: Env of HIV-1 pseudovirus 1012_11_TC21_3257 (HIV-1)
[21] = target: Env of HIV-1 pseudovirus ZM214M.PL15 (HIV-1)
[22] = target: Env of HIV-1 pseudovirus 62357_14_D3_4589 (HIV-1)
[23] = target: Env of HIV-1 pseudovirus Ce2010_F5 (HIV-1)
[24] = target: HIV-1 Env pseudovirus SC05_8C11_2344 (HIV-1)
[25] = target: HIV-1 Env pseudovirus Du422.1 (HIV-1)
[26] = target: HIV-1 Env pseudovirus CNE58 (HIV-1)
[27] = target: HIV-1 Env pseudovirus CNE17 (HIV-1)
[28] = target: HIV-1 Env pseudovirus THRO4156.18 (HIV-1)
[29] = target: HIV-1 Env pseudovirus 6244_13_B5_4576 (HIV-1)
[30] = target: HIV-1 Env pseudovirus CAP45.2.00.G3 (HIV-1)
[31] = target: HIV-1 Env pseudovirus Q769.d22 (HIV-1)
[32] = target: HIV-1 Env pseudovirus TRO.11 (HIV-1)
[33] = target: HIV-1 Env pseudovirus HIV-16845-2.22 (HIV-1)
[34] = target: HIV-1 Env pseudovirus Ce703010054_2A2 (HIV-1)
[35] = target: HIV-1 Env pseudovirus ZM135M.PL10a (HIV-1)
[36] = target: HIV-1 Env pseudovirus Ce1176_A3 (HIV-1)
[37] = target: HIV-1 Env pseudovirus CNE52 (HIV-1)
[38] = target: HIV-1 Env pseudovirus CNE20 (HIV-1)

Question: Which IC50 (Titer in TZM.bl cells) [1] does the source give for 8ANC195 (antibody) here?
Answer: 26.9 µg/mL

Question: What about the IC80 (Titer in TZM.bl cells) [1] of the same substance?
Answer: > 50 µg/mL

Question: What about the IC50 (Titer in TZM.bl cells) [2] of the same substance?
Answer: > 50 µg/mL

Question: And the IC80 (Titer in TZM.bl cells) [2]?
Answer: > 50 µg/mL

Question: What about the IC50 (Titer in TZM.bl cells) [3] of the same substance?
Answer: 5.34 µg/mL

Question: What about the IC80 (Titer in TZM.bl cells) [3] of the same substance?
Answer: 27.6 µg/mL

Question: What about the IC50 (Titer in TZM.bl cells) [4] of the same substance?
Answer: 2.36 µg/mL

Question: And the IC80 (Titer in TZM.bl cells) [4]?
Answer: 2.36 µg/mL

Question: What about the IC50 (Titer in TZM.bl cells) [5] of the same substance?
Answer: > 50 µg/mL

Question: What about the IC80 (Titer in TZM.bl cells) [5] of the same substance?
Answer: > 50 µg/mL

Question: And the IC50 (Titer in TZM.bl cells) [6]?
Answer: 1.34 µg/mL

Question: And the IC80 (Titer in TZM.bl cells) [6]?
Answer: 8.43 µg/mL

Question: What about the IC50 (Titer in TZM.bl cells) [7] of the same substance?
Answer: 0.87 µg/mL

Question: And the IC80 (Titer in TZM.bl cells) [7]?
Answer: > 50 µg/mL

Question: And the IC50 (Titer in TZM.bl cells) [8]?
Answer: > 50 µg/mL

Question: And the IC80 (Titer in TZM.bl cells) [8]?
Answer: > 50 µg/mL

Question: And the IC50 (Titer in TZM.bl cells) [9]?
Answer: 0.47 µg/mL

Question: What about the IC80 (Titer in TZM.bl cells) [9] of the same substance?
Answer: 4.11 µg/mL

Question: Which results are given for 10E8 (antibody)?
Answer: IC50 [10]: 0.031 µg/mL; IC80 [10]: 0.213 µg/mL; IC50 [11]: 0.086 µg/mL; IC80 [11]: 0.809 µg/mL; IC50 [12]: 1.22 µg/mL; IC80 [12]: 7.71 µg/mL; IC50 [13]: 1.28 µg/mL; IC80 [13]: 9.28 µg/mL; IC50 [14]: 0.722 µg/mL; IC80 [14]: 4.82 µg/mL; IC50 [15]: 0.351 µg/mL; IC80 [15]: 1.88 µg/mL; IC50 [16]: 0.747 µg/mL; IC80 [16]: > 10 µg/mL; IC50 [17]: 0.68 µg/mL; IC80 [17]: 3.53 µg/mL; IC50 [18]: 1.18 µg/mL; IC80 [18]: 7.42 µg/mL; IC50 [19]: 0.728 µg/mL; IC80 [19]: 5.28 µg/mL; IC50 [20]: 0.244 µg/mL; IC80 [20]: 4.21 µg/mL; IC50 [21]: 1.96 µg/mL; IC80 [21]: > 10 µg/mL; IC50 [22]: 0.119 µg/mL; IC80 [22]: 1.06 µg/mL; IC50 [23]: 1.84 µg/mL; IC80 [23]: 8.61 µg/mL

Question: For N49P11 (antibody), which IC50 [24] is on record?
Answer: 5.42 µg/mL

Question: And the IC80 [24]?
Answer: 20.5 µg/mL

Question: And the MPI [24]?
Answer: 100

Question: And the IC50 [25]?
Answer: 8.81 µg/mL

Question: And the IC80 [25]?
Answer: 21.2 µg/mL

Question: What about the MPI [25] of the same substance?
Answer: 100

Question: And the IC50 [26]?
Answer: 0.038 µg/mL

Question: What about the IC80 [26] of the same substance?
Answer: 0.135 µg/mL

Question: And the MPI [26]?
Answer: 100

Question: What about the IC50 [27] of the same substance?
Answer: 6.68 µg/mL

Question: And the IC80 [27]?
Answer: 25.6 µg/mL

Question: And the MPI [27]?
Answer: 100

Question: And the IC50 [28]?
Answer: 1.84 µg/mL

Question: And the IC80 [28]?
Answer: 10.4 µg/mL

Question: And the MPI [28]?
Answer: 100

Question: And the IC50 [29]?
Answer: 1.12 µg/mL

Question: And the IC80 [29]?
Answer: 5.45 µg/mL

Question: And the MPI [29]?
Answer: 100

Question: And the IC50 [30]?
Answer: 5.25 µg/mL

Question: What about the IC80 [30] of the same substance?
Answer: 24 µg/mL

Question: What about the MPI [30] of the same substance?
Answer: 100

Question: And the IC50 [31]?
Answer: 0.048 µg/mL

Question: And the IC80 [31]?
Answer: 0.308 µg/mL

Question: And the MPI [31]?
Answer: 100

Question: And the IC50 [32]?
Answer: 0.179 µg/mL

Question: What about the IC80 [32] of the same substance?
Answer: 0.937 µg/mL

Question: And the MPI [32]?
Answer: 100

Question: And the IC50 [33]?
Answer: 1.72 µg/mL

Question: And the IC80 [33]?
Answer: 8.15 µg/mL

Question: And the MPI [33]?
Answer: 100

Question: What about the IC50 [34] of the same substance?
Answer: 1.42 µg/mL

Question: What about the IC80 [34] of the same substance?
Answer: 7.51 µg/mL

Question: What about the MPI [34] of the same substance?
Answer: 100

Question: What about the IC50 [35] of the same substance?
Answer: 3.97 µg/mL

Question: What about the IC80 [35] of the same substance?
Answer: 16.6 µg/mL

Question: And the MPI [35]?
Answer: 100

Question: And the IC50 [36]?
Answer: 0.946 µg/mL

Question: What about the IC80 [36] of the same substance?
Answer: 6.05 µg/mL

Question: And the MPI [36]?
Answer: 100

Question: And the IC50 [37]?
Answer: 0.06 µg/mL

Question: What about the IC80 [37] of the same substance?
Answer: 0.307 µg/mL

Question: What about the MPI [37] of the same substance?
Answer: 100

Question: And the IC50 [38]?
Answer: 5.19 µg/mL

Question: What about the IC80 [38] of the same substance?
Answer: 22.6 µg/mL

Question: What about the MPI [38] of the same substance?
Answer: 100

Question: For VRC01 (antibody), which IC50 (Titer in TZM.bl cells) [1] is on record?
Answer: > 50 µg/mL

Question: And the IC80 (Titer in TZM.bl cells) [1]?
Answer: > 50 µg/mL

Question: What about the IC50 (Titer in TZM.bl cells) [24] of the same substance?
Answer: 0.64 µg/mL

Question: What about the IC80 (Titer in TZM.bl cells) [24] of the same substance?
Answer: 1.91 µg/mL

Question: What about the IC50 (Titer in TZM.bl cells) [2] of the same substance?
Answer: 0.14 µg/mL

Question: And the IC80 (Titer in TZM.bl cells) [2]?
Answer: 0.32 µg/mL

Question: And the IC50 (Titer in TZM.bl cells) [3]?
Answer: 0.09 µg/mL

Question: And the IC80 (Titer in TZM.bl cells) [3]?
Answer: 0.26 µg/mL

Question: And the IC50 (Titer in TZM.bl cells) [25]?
Answer: > 50 µg/mL

Question: And the IC80 (Titer in TZM.bl cells) [25]?
Answer: > 50 µg/mL

Question: What about the IC80 (Titer in TZM.bl cells) [28] of the same substance?
Answer: 23 µg/mL

Question: What about the IC50 (Titer in TZM.bl cells) [29] of the same substance?
Answer: 0.21 µg/mL

Question: And the IC80 (Titer in TZM.bl cells) [29]?
Answer: 0.53 µg/mL

Question: What about the IC80 (Titer in TZM.bl cells) [30] of the same substance?
Answer: > 50 µg/mL

Question: What about the IC50 (Titer in TZM.bl cells) [4] of the same substance?
Answer: 0.34 µg/mL

Question: What about the IC80 (Titer in TZM.bl cells) [4] of the same substance?
Answer: 1.2 µg/mL

Question: And the IC50 (Titer in TZM.bl cells) [31]?
Answer: 0.08 µg/mL

Question: What about the IC80 (Titer in TZM.bl cells) [31] of the same substance?
Answer: 0.29 µg/mL

Question: And the IC50 (Titer in TZM.bl cells) [5]?
Answer: > 50 µg/mL

Question: And the IC80 (Titer in TZM.bl cells) [5]?
Answer: > 50 µg/mL

Question: What about the IC50 (Titer in TZM.bl cells) [32] of the same substance?
Answer: 0.21 µg/mL

Question: And the IC80 (Titer in TZM.bl cells) [32]?
Answer: 0.83 µg/mL

Question: And the IC50 (Titer in TZM.bl cells) [6]?
Answer: 14.3 µg/mL

Question: And the IC80 (Titer in TZM.bl cells) [6]?
Answer: > 50 µg/mL

Question: And the IC50 (Titer in TZM.bl cells) [33]?
Answer: 2.8 µg/mL

Question: What about the IC80 (Titer in TZM.bl cells) [33] of the same substance?
Answer: 12.7 µg/mL

Question: And the IC50 (Titer in TZM.bl cells) [7]?
Answer: 0.16 µg/mL

Question: What about the IC80 (Titer in TZM.bl cells) [7] of the same substance?
Answer: 0.42 µg/mL

Question: And the IC50 (Titer in TZM.bl cells) [34]?
Answer: 0.53 µg/mL

Question: What about the IC80 (Titer in TZM.bl cells) [34] of the same substance?
Answer: 1.84 µg/mL

Question: And the IC50 (Titer in TZM.bl cells) [35]?
Answer: 0.35 µg/mL

Question: What about the IC80 (Titer in TZM.bl cells) [35] of the same substance?
Answer: 2.7 µg/mL

Question: What about the IC50 (Titer in TZM.bl cells) [36] of the same substance?
Answer: 2.25 µg/mL

Question: What about the IC80 (Titer in TZM.bl cells) [36] of the same substance?
Answer: 8.1 µg/mL

Question: And the IC50 (Titer in TZM.bl cells) [8]?
Answer: 0.17 µg/mL

Question: And the IC80 (Titer in TZM.bl cells) [8]?
Answer: 0.58 µg/mL

Question: What about the IC50 (Titer in TZM.bl cells) [9] of the same substance?
Answer: 0.12 µg/mL

Question: What about the IC80 (Titer in TZM.bl cells) [9] of the same substance?
Answer: 0.74 µg/mL
